Measured values taken from publication PMC12489471, “A multi-dentate, cooperative interaction between endo- and exo-ribonucleases within the bacterial RNA degradosome” (Nucleic Acids Research, 2025).

Tests used:
PNPase = biological target: T1, PNPase (Escherichia coli, UniProt P05055); assay type: binding, E. coli; details: SPR, 25°C, immobilized PNPase C-His; HEPES pH 7.2; 0, 12.5, 25 and 50 nM (point mutants); contact 120 s, dissociation 120 s; duplicates
T1 construct: made in house; host or cells: E. coli Evo21(DE3)
T1 sequence (P05055 whole entry, looked up): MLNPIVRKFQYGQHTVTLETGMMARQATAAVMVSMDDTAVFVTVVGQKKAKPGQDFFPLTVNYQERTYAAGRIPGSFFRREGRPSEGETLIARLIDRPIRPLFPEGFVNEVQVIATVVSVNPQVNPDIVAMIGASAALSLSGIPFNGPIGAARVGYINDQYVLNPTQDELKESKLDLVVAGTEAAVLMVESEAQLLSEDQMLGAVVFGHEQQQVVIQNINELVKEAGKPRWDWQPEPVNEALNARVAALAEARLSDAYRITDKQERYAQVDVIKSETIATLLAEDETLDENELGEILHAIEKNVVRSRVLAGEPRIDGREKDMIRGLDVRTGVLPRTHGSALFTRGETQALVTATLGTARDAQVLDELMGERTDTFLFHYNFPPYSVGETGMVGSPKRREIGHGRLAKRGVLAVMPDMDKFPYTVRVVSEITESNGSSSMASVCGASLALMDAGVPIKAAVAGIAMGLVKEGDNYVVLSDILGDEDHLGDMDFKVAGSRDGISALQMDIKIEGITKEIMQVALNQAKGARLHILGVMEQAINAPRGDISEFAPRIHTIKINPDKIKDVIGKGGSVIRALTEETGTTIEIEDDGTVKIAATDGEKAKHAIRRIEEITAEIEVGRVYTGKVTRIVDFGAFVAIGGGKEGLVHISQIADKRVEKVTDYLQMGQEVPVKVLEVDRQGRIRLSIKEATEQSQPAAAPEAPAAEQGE

full-length PNPase = experiment: Cryo-EM of full-length PNPase:RNase E 960–1061; assay type: binding, E. coli

B1: RNase E 960 – 1061 wildtype: wildtype RNase E peptide 960–1061 (peptide)
chain: VVETAEVVVAEPEVVAQPAAPVVAEVAAEVETVAAVEPEVTVEHNHATAPMTRAPAPEYVPEAPRHSDWQRPTFAFEGKGAAGGHTATHHASAAPARPQPVE
modifications: left off: His6, N-terminal, cleaved | MBP, N-terminal, cleaved | intein, C-terminal, cleaved | choline-binding domain, C-terminal, cleaved
- Kd (dissociation rate constant, point mutants and wildtype) (PNPase): 0.026 s⁻¹
- location of extra density / binding on PNPase (full-length PNPase; cryo-EM, PNPase:RNase E 960–1061): bridging two b-strands
- interaction with KH and S1 domains of PNPase (full-length PNPase; preliminary cryo-EM map, full-length PNPase): does not interact with the KH and S1 domains of PNPase
